In US20070207154A1, “METHOD OF MODULATING VASCULARIZATION” (priority 2004, published 2007):

System: sprouting from wild-type, TFΔCT and PAR-2-deficient aortas
Assay: ex vivo angiogenesis assay (aortic ring sprouting in Matrigel)
Type: cell-based, mouse
Details: wild-type and TFΔCT aortas, EGM without serum, day 4; growth factors 20 ng/ml, VIIa 50 nM (FIG. 2c)
Experimental: Angiogenesis assays. The ex vivo angiogenesis assay was adopted from the rat aortic sprouting model described by Masson et al. Biol. Proced. […] Thoracic aortas from 8-11 week old wild-type, TFΔCT, PAR-2-deficient, and TFΔCT/PAR-2-deficient mice of either sex were embedded in Matrigel, and overlaid with EGM supplemented with 5% serum, growth factors, or inhibitors at the following concentrations: VEGF, bFGF, and PDGF: 20 ng/ml; hirudin: 500 nM, VIIai: […], NAPc2: […], NAP5: 1 μM, VIIa: 50 nM. In most cases, the number of aortic sprouts was determined at day 3 and 4 without knowledge of the genotype. Aortic ring RNA was isolated by Trizol (Invitrogen) extraction using standard procedures, digested with DNAaseI, followed by RT-PCR for β-actin and TF. […] Tests used 2 different virus doses, referred to as high (1.1×10^10 virus particles/ml) and low (5×10^9 particles/ml). For confocal fluorescence microscopy, aortic pieces with a minimum of surrounding Matrigel were fixed with 4% paraformaldehyde and methanol, incubated with primary and secondary antibodies (24 hours each), and mounted in anti-fade medium (Vector laboratories). Alternatively, cryosections of OCT-embedded aortas were fixed with acetone and stained as described above.

B1: PDGF-BB: platelet-derived growth factor BB, activates PDGF receptor β (protein, UniProt P01127 82-190, looked up)
Platelet-derived growth …: SLGSLTIAEPAMIAECKTRTEVFEISRRLIDRTNANFLVWPPCVEVQRCSGCCNNRNVQCRPTQVQLRPVQVRKIEIVRKKPIFKKATVTLEDHLACKCETVAAARPVT
modifications: BB homodimer
  sprouting induced by single factor replacing serum: None of these factors promoted substantial sprouting
